Laboratory results from the supplement of paper PMC10567573.
± gives the standard deviation.

Test: protein stability index of a GFP-peptide fusion (GPS, HEK-293T) (PSI 1-6); higher = more stable
[1] = treatment: DMSO, c terminus: a fixed tail appended
[2] = treatment: MLN4924 1 uM, 8 h, c terminus: a fixed tail appended
[3] = treatment: DMSO, c terminus: native
[4] = treatment: MLN4924 1 uM, 8 h, c terminus: native
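Further: 24-mer peptide tiles fused after GFP, lentivirally expressed, FACS-sorted into six equal bins by GFP/DsRed ratio, decoded by Illumina sequencing, PSI is the read-weighted mean bin number.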

Sequence	protein stability index [1]	protein stability index [2]	protein stability index [3]	protein stability index [4]
EFGYNAETQKLLCKNGETLLGAVN [ARFIP2]	3.31 ± 0.042	3.29 ± 0.38	–	–
EFMLLPANQLIDIISSDELNVRSE [KLHL20]	3.71 ± 0.37	3.38 ± 0.44	–	–
EFNGLKKMNPKLKTLLAIGGWNFS [CHIT1]	2.44 ± 0.57	2.32 ± 0.34	–	–
EFPDFYDSEEPVSTHQEAENEKDR [CHGB]	5.68 ± 0.25	5.54 ± 0.24	–	–
EGPKRELGVRRPGGAGKEGVRVNN [TCF25]	4.7 ± 0.12	5.04 ± 0.16	–	–
EGVEIMLGVCASGLLIYRDRLRIN [EPB41L3]	2.75 ± 2.1	2.12 ± 0.2	–	–
EHIKSLLIKNNSLPRKRQSLRSSS [INTS3]	3.29 ± 0.17	3.38 ± 0.25	–	–
EHKETSRNLHSHYHEAPMTRKHYQ [POMT2]	4.09 ± 0.28	4.22 ± 0.2	–	–
EHNSSLVSQQTGSPGKQPGENSDC [ZNF8]	5.25 ± 0.3	5.39 ± 0.073	–	–
EHRVAGIFPRLSFKDKSTYIESST [CLPTM1]	3.16 ± 0.2	2.93 ± 0.29	–	–
EILSSRASYSGKAADVWSLGVALF [TRIB3]	2.52 ± 0.52	2.42 ± 0.39	–	–
EIPERRDSGVGASLTRSNRHRLRW [DLC1]	4.17 ± 0.35	4.36 ± 0.32	–	–
EKEIEEATKKLGFKHPVIGVHVRR [FUT8]	3.99 ± 0.29	3.9 ± 0.51	–	–
EKKVLEAGMGKVTSASFGEESTPG [HDAC6]	5.21 ± 0.23	5.18 ± 0.32	–	–
EKLIQERSQQQEPLLCPSYQSYFK [KRT34]	3.36 ± 0.23	3.41 ± 0.32	–	–
EKMEEEEQTCDPDSSLHWSSSYSP [ZNF396]	5.3 ± 0.32	5.56 ± 0.065	–	–
EKVLDQVETELQRRNEETPEEGQQ [GDAP1]	5.68 ± 0.14	5.64 ± 0.093	–	–
ELARIVLLRHGMDRLWRPSKVLSL [RAB40B]	2.54 ± 0.67	2.43 ± 0.75	–	–
ELDEEEVKAATTEPTEVEEVVPAL [BCL2L13]	5.44 ± 0.28	5.54 ± 0.13	–	–
ELEEDDGHGAEQAAAFPTEDSRTS [EHMT1]	5.65 ± 0.17	5.7 ± 0.088	–	–
ELFEDIVAREYYSEADASHCIQQI [CAMK2B]	2.8 ± 0.34	3.03 ± 0.25	–	–
ELGSPLRRSISSSRSENVLSRLSL [PSD2]	3.07 ± 0.42	3.2 ± 0.13	–	–

Sequence	protein stability index [1]	protein stability index [2]	protein stability index [3]	protein stability index [4]
ELMAELEELEQEELNKKMTNIRLP [CHMP4C]	3.55 ± 0.3	3.65 ± 0.22	–	–
ELRRRRYEYDHWDAAIHGFRETEK [ALKBH7]	3.5 ± 0.39	3.56 ± 0.44	–	–
ELRVLADTYDSVYLHPNSYSCACL [HDAC6]	2.03 ± 0.12	2.04 ± 0.4	–	–
ENSVEFEACLVAQCDALIDALNRR [TRIM9]	2.88 ± 0.24	3.11 ± 0.37	–	–
ENYNNLANAVISVSGINHDVTSGD [CPN1]	4.28 ± 0.2	4.4 ± 0.14	–	–
EPELSPAYLISEAMRRSRMSLYC [GFOD1]	–	–	2.3 ± 0.81	2.27 ± 0.3
EPFGKERDAAIKKLATEAGVEVIV [CRY1]	3.59 ± 0.22	3.48 ± 0.28	–	–
EPFVLPASSVESTLPVLEASSWKK [FBXO34]	4.57 ± 0.22	4.87 ± 0.2	–	–
EPGKQERDVYLPAGKWRSYKGELF [MYORG]	3.17 ± 0.087	3.2 ± 0.21	–	–
EPKNYGSYSTQASAAAATAELLKK [SCAMP3]	4.84 ± 0.18	4.83 ± 0.16	–	–
EPLEPEVKYVGNMHGNEALGRELM [CPN1]	4.63 ± 0.088	4.82 ± 0.18	–	–
EPNTLRAPRVRTAFTMEQVRTLEG [VENTX]	3.98 ± 0.39	3.85 ± 0.21	–	–
EPPPALPPAADAPVTQIGFEAPPL [TRIM55]	5.24 ± 0.22	5.39 ± 0.11	–	–
EPPPEVWQVLKTHPGDPRFQCSLW [POLD4]	2.45 ± 0.42	2.55 ± 0.31	–	–
EQCVSFNSHVYNGRTHQWKPLYPD [ADAMTSL2]	3.26 ± 0.25	3.08 ± 0.19	–	–
EQDAACGFCFFNSVAVAARHAQTI [HDAC6]	1.99 ± 0.83	1.95 ± 0.21	–	–
EQELLRRQQRLNQLEKPPEKEEDH [FAM107A]	5.62 ± 0.16	5.54 ± 0.12	–	–
EQEPIGTDLDAVRTPEPLEEFPKR [MYBL2]	5.57 ± 0.2	5.18 ± 0.46	–	–
EQLERINDALSCEYECRRRMLMKR [FAM98B]	3.09 ± 0.37	3.14 ± 0.33	–	–
EQPVPPTPATPEDPAPLWGPPPAQ [EMID1]	4.92 ± 0.38	5.32 ± 0.22	–	–
EQYDLATKRVRQLLDLDPEVECLK [GOLPH3]	3.96 ± 0.28	3.97 ± 0.43	–	–
ERCFRGSSYPVCVSKVVKGGSSGK [OAS1]	3.84 ± 0.13	4.07 ± 0.12	–	–

Sequence	protein stability index [1]	protein stability index [2]	protein stability index [3]	protein stability index [4]
ERHLVEIKQKLGMNLMNELKQNFS [TPD52L1]	3.04 ± 0.2	2.71 ± 0.41	–	–
ERLDELQDKSESLSDNATAFSNRS [VAMP4]	5.44 ± 0.24	5.34 ± 0.088	–	–
ERNNIAVRKSRDKAKRRNQEMQQK [CEBPD]	3.79 ± 0.9	3.31 ± 0.37	–	–
ERRPVAQSTDGARGKRGYSRGLHA [SPSB2]	4.52 ± 0.11	4.58 ± 0.13	–	–
ERTKSRLVNTSENLSKSRKILRSM [VTI1B]	3.79 ± 0.21	3.87 ± 0.19	–	–
ESEVYSWGKGARGRLGRRDEDAGL [NEK8]	4.67 ± 0.19	4.66 ± 0.37	–	–
ESGVDVNSQNEVNGWTCLHWACKR [ANKRD40]	3.06 ± 0.22	3.31 ± 0.46	–	–
ESPFSRKLDLWSFLDIPRSRLVKY [NET1]	2.06 ± 0.14	2.15 ± 0.21	–	–
ESRMRIESLSSQLSNLQKESRACL [LMNB1]	3.63 ± 0.34	3.94 ± 0.12	–	–
ESSILGTDIDLQTIDNDIVSMEIF [M1AP]	3.86 ± 0.34	3.74 ± 0.35	–	–
ETLEGREKAFIAHFQDNLHSVNRD [MED27]	4.32 ± 0.22	4.26 ± 0.2	–	–
ETVPWFPKKISDLDHCANRVLMYG [TPH1]	2.38 ± 0.24	2.46 ± 0.26	–	–
EVHSLTLSPPEQAAQPMQPLPESL [PLAGL1]	4.92 ± 0.26	5.02 ± 0.088	–	–
EVLAQPQGALAPPNCESDSKTGV [DNAAF3]	–	–	5.34 ± 0.27	5.3 ± 0.39
EVLENVFRVNCYPGIDIREDLAQK [HESX1]	2.46 ± 0.31	2.35 ± 0.66	–	–
EWARALETRDWGGAQFEGEKGRAL [ZSWIM9]	3.88 ± 0.3	3.9 ± 0.31	–	–
FANEEEAKKFRKAVTDLLGRRQRK [WASL]	3.15 ± 0.24	3.52 ± 0.27	–	–
FDVETRHVFIGDHSGQVTILKLEQ [WDFY2]	2.2 ± 0.44	2.43 ± 0.33	–	–
FEKLLQLTSQNIEIKLVSDVTADS [PLD5]	2.69 ± 0.59	2.72 ± 0.37	–	–
FGFFFGRTPLIKLSPKKTWEGFIG [CDS1]	2.47 ± 0.48	2.18 ± 0.57	–	–
FGIEIEVTDINDNAPKFQAENLDV [PCDHGA10]	3.5 ± 0.56	3.98 ± 0.38	–	–
